Consider one molecule from JP2010500380A.

The target of the experiment is 白血球IFN (leukocyte IFN, Sigma I-2396). The experiment can be described thus: cell-based or functional assay.

B1: ACO-1 (antibody, V domains shown)
VH: QVQLQQPGAELVKPGASVKLSCKASGYTFTNYWMHWVKQRPGQGLEWIGEINPSHGRTIYNENFKSKATLTVDKSSITAFMQLSSLTSEDSAVYFCARGGLGPAWFAYWGQGTLVTVSA
VL: QIVLTQSPAIMSASPGEKVTLTCSAGSSVDSSYLYWYQQKPGSSPKLWIYSTSNLASGVPARFSGSGSGTSYSLTISSMEAEDAASYFCHQWSSYPFTFGSGTKLEIKR
B1 returned a percent block of bioactivity, RG bioassay, 600 pg leukocyte IFN greater than 50%.
